# From article PMC9461283
# pKd: −log10 of the molar value.
# Molecular target: SARS-CoV-2 S receptor-binding domain (RBD) (SARS-CoV-2 (isolate Wuhan-Hu-1)) (UniProt P0DTC2)
# Test: SPR
row,Substance,pKd
1,"cynomolgus macaque (Macaca fascicularis) ACE2 ectodomain (ectoACE2), N-terminal 367 aa (domain or fragment)",7.16
2,"rhesus macaca (Macaca mulatta) ACE2 ectodomain (ectoACE2), N-terminal 367 aa (from UniProt F7AH40 1-367) (domain or fragment)",7.17
